Reference: US20250122278A1, “ANTI-INTERLEUKIN-9 ANTIBODY AND USE THEREOF” (GUANGDONG KEGUANDA PHARMACEUTICAL TECHNOLOGY CO., LTD., priority 2022, published 2025)

B1: 22-F2-E9-C8 chimeric antibody (CA4) (antibody, V domains shown)
VH: EVQVVESGPGLVKPSQSLSLTCSVTGSSFTSGYYWNWIRQFPGNKLEWMGYIRYDGSNNYNPSLKNRISITRDTSKNQFFLKLNSVTSEDTATYYCASYGSSYDAMDYWGQGTSVTVSS
VL: DIQLTQPPASLSASVGETVTITCRASENIDSYLAWYQQKQGKSPQLLVYAATLLADGVPSRFSGSGSGTQYSLKINSLQSEDVARYYCQHYYSTPWTFGGGTKLELK
B2: 29-B9-F5-B6 chimeric antibody (CA3) (antibody, V domains shown)
VH: EVQLQESGAELMKPGASVKISCKATGYTFSSYWIEWVKQRPGHGLEWIGQILPGSGSNNYNERFKGKATFTADTSSNTAYMQLSSLTSEDSAVYYCAREGNYGEAWFAYWGQGTLVTVSA
VL: DILLTQSPATLSVTPGDSVSLSCRASQSISNNLHWYQQKSHESPRLLIKYASQSMSGIPSRFSGSGSGTDFTLSINSVETEDFGMYFCQQSNSWPLTFGAGTKLELK
B3: 31-D6-B8-B8 chimeric antibody (CA2) (antibody, V domains shown)
VH: EVQLKESGPGLVKPSQSLSLTCSVTGYSSTSGYYWNWIRQFPGNKLEWMGYIRYDGSSNHNPSLKNRISITRDTSKNQFFLKLNSVTTEDTATYYCASYGITYDAMDYWGQGTSVTVSS
VL: DIQLTQPPASLSASVGETVTITCRASENIDSYLAWYQQKQGKSPQLLVYAATLLADGVPSRFSGSGSGTQYSLKINSLQSEDVARYYCQHYYSTPWTFGGGTKLELK
B4: 38-D8-C7-G9 chimeric antibody (CA1) (antibody, V domains shown)
VH: EVQLKQSGAELMKPGASVKLSCKATGYTFTGYWIEWVKLRPGHGLEWIGEILPGSGSTNYNEEFKGKATFTADTSSNTAYMQLNSLTTEDSAIYYCARRTYYYGIPEDYWGQGTSVTVSS
VL: DIVMTQSQKFMSTSVGDRVSVTCKASQNVGTNVAWHQQKPGQSPKPLIYSASYRYSGVPDRFTGSGSGTDFTLTISNVQSEDLAEYFCQQYNSYPLTFGAGTKLELK
notes: also called CA1 antibody; human-mouse chimeric antibody CA1
B5: 7F3com (antibody, V domains shown)
VH: QVQLVQSGAEVKKPGSSVKVSCKASGGTFSYYWIEWVRQAPGQGLEWMGEILPGSGTTNPNEKFKGRVTITADESTSTAYMELSSLRSEDTAVYYCARADYYGSDYVKFDYWGQGTLVTVSS
VL: DIQMTQSPSSLSASVGDRVTITCKASQHVITHVTWYQQKPGKAPKLLIYGTSYSYSGVPSRFSGSGSGTDFTLTISSLQPEDFATYYCQQFYEYPLTFGGGTKVEIK
notes: also called IL-9 positive control antibody; IL-9 positive antibody
B6: humanized antibody VH1-VL2 (hu.CA1) (antibody, V domains shown)
VH: EVQLKQSGAEVMKPGASVKVSCKATGYTFTGYWIEWVRLAPGHGLEWMGEILPGSGSTNYNQKFQGRVTFTADTSINTAYMELSRLRSDDTAIYYCARRTYYYGIPEDYWGQGTLVTVSS
VL: DIVMTQSQKFFSTSTGDRVTITCRASQNVGTNVAWHQQKPGQSPKPLIYSASYRYSGVPSRFTGSGSGTDFTLTISNLQSEDFAEYFCQQYNSYPLTFGAGTKLEIK
notes: IgG1 / kappa by the vectors pcDNA3.4-IgG1 and pcDNA3.4-IgKc; also called humanized VH1-VL2 antibody

Experiments:
[1] = biological target: T1, IL-9-His recombinant protein (UniProt P15248 19-144); test: ELISA on IL-9-His, 293F culture supernatant, antibody concentration 2 µg/mL (second well)
T1 construct: range 19-144; used as coating antigen in the ELISAs; also called IL9 (19-144)-His; not shown: His tag, C-terminal by the vector name

[2] = biological target: T1, IL-9-His recombinant protein; test: ELISA on IL-9-His, 293F culture supernatant, antibody concentration 1 µg/mL (second well)
Method: (§3) ELISA was conducted according to a standard protocol to determine the affinity of a purified antibody for the IL-9-His recombinant protein. In short, the IL-9-His recombinant protein was diluted with sterile PBS and added at 100 μL/well to a 96-well plate. The plate was incubated at 4° C. overnight and then blocked with a blocking buffer. 100 μL of a purified anti-IL-9 antibody serially diluted was added to the plate, and the plate was incubated for 1 h at room temperature. PBS was added to a control well. The plate was washed with PBST 3 times. Then 100 μL of horseradish peroxidase (HRP)-labeled anti-mouse IgG H&L (BIODRAGON, CAT #BF03001) was added, and the plate was incubated for 1 h at room temperature. The plate was washed with PBST 3 times. Then a chromogenic reaction was conducted with a 3,3′,5,5′-tetramethylbenzidine (TMB) chromogenic solution at room temperature. An OD value in each well was read by a microplate reader. Data was processed with PRISM GraphPad, and curves were plotted. The EC₅₀ value for each candidate antibody was calculated.

[3] = biological target: T1, IL-9-His recombinant protein; test: ELISA on IL-9-His, 293F culture supernatant, antibody concentration 1 µg/mL
Method: as §3

[4] = biological target: T2, biotin-conjugated IL-9-Fc (Biotin-IL-9-Fc) (UniProt P15248 19-144, biotin-conjugated (sites not given)); test: flow cytometry blocking assay (IL-9-IL-9R blocking determination): serially diluted chimeric antibody against the binding of Biotin-IL-9-Fc to 293-IL-9R cells (IL-9R), MFI; unit taken from the x axis, the table prints none
T2 construct: range 19-144; also called Fc-IL-9 recombinant protein; Fc-IL-9; not shown: Fc tag (Fc2 in the vector name pLVX-Fc2-IL9 (19-144)-Puro)

[5] = biological target: T1, IL-9-His recombinant protein; test: ELISA on IL-9-His, 293F culture supernatant, antibody concentration 2 µg/mL
Method: as §3

[6] = biological target: T2, biotin-conjugated IL-9-Fc …; test: flow cytometry blocking assay (IL9-IL9R blocking determination): serially diluted antibody against the binding of Biotin-IL-9-Fc to 293-IL-9R cells (IL-9R), MFI; unit taken from the x axis, the table prints none
[7] = biological target: T1, IL-9-His recombinant protein; test: BLI (ForteBio), antibody on Protein A sensor, antigen 7.81-125 nM in solution
From the text: The affinity of a humanized antibody was detected by ForteBio (BLI). […] An affinity detection procedure was as follows: equilibration for 60 s, binding for 180 s, and dissociation for 180 s.

[8] = biological target: T1, IL-9-His recombinant protein; test: ELISA on coated IL-9-His, OD450; unit taken from the x axis, the table prints none
Method: as §3

[9] = biological target: T2, biotin-conjugated IL-9-Fc …; test: flow cytometry blocking assay (IL-9-IL-9R blocking determination): serially diluted antibody against the binding of Biotin-IL-9-Fc to 293-IL-9R cells (IL-9R), MFI; unit taken from the x axis, the table prints none
Method: The plate was washed with PBS once. […] Washing was conducted with PBS, and then resuspension was conducted with PBS. Flow cytometry was conducted.

IL-9 antigen protein = biological target: T3, IL-9 antigen protein (Homo sapiens, UniProt P15248); test: ForteBio (BLI) affinity detection; assay type: binding; settings: antibody immobilized on Protein A sensor, antigen 7.81-125 nM
T3 construct: pcDNA3.4-IL9 (19-144)-His (P15248) and pLVX-Fc2-IL9 (19-144)-Puro; made in house; host or cells: 293F cells (transient transfection)
Method: The affinity of a humanized antibody was detected by ForteBio (BLI). The chimeric (as a control) and humanized antibodies were immobilized with a Protein A sensor (SARTORIUS, Cat #18-5010) at an immobilization height of about 1 nm. An antigen protein sample was serially diluted with PBS to 125 nM, 62.5 nM, 31.25 nM, 15.625 nM, 7.81 nM, and 0 nM. An affinity detection procedure was as follows: equilibration for 60 s, binding for 180 s, and dissociation for 180 s.

[10] = test system: silica mouse model of pulmonary fibrosis; test: Silica mouse pulmonary fibrosis model; assay type: in vivo, C57BL/6J mice
Method: (§1) 6 to 8-week-old male C57BL/6J mice (purchased from Guangdong Sijiajingda Biotechnology Co., Ltd., license No.: SCXK (Guangdong) 2020-0052) were grouped, modeled, and administered according to the protocols shown in Tables 6 and 7 below. The modeling with bleomycin (Nippon Kayaku, 15 mg powder, and dose: 1.5 mg/kg) and silica (SiO2, sigma, USA, S5631-500 g, and dose: 2.5 mg/mouse) was started on day 0 (DO). The administration was started on day 1 (D1), and normal saline was adopted as a solvent for an antibody. A positive drug pirfenidone (Beijing Kangdini Pharmaceutical Co., Ltd., 100 mg capsule) was adopted in a positive control group, and the humanized antibody hu.CA1 (VH1−VL2) of the present application was adopted in an anti-IL-9 antibody group.
(§2) A body weight of each mouse was measured every day. After the bleomycin model group was administered for 21 d and the silica model group was administered for 30 d, mice were sacrificed to collect lung tissues. The lung tissues each were stained to detect pathological changes in the lung tissues. Specifically, a degree of alveolar inflammation was detected through HE staining (an HE staining kit was purchased from Shanghai Beyotime Biotechnology, C0105M). A degree of pulmonary fibrosis was detected through Masson staining (a Masson staining kit was purchased from Nanjing Jiancheng Institute of Biological Engineering, D026-1-2). Scoring criteria for the HE staining and Masson staining were shown in Table 8 and Table 9 below, respectively (as shown in references: Matute-Bello G, Downey G, Moore B B, et al. An official American Thoracic Society workshop report: features and measurements of experimental acute lung injury in animals. Am J Respir Cell Mol Biol. 2011; 44 (5): 725-738. doi: 10.1165/rcmb.2009-0210ST and Lee Hyun Ju, Goo Jin Mo, Kim Na Ra et al. Semiquantitative measurement of murine bleomycin-induced lung fibrosis in in vivo and postmortem conditions using microcomputed tomography: correlation with pathologic scores—initial results. [J].Invest Radiol, 2008, 43: 453-60).

IL-9 = biological target: T4, IL-9 (Homo sapiens, UniProt P15248); test: ELISA binding of humanized antibodies to the target antigen; settings: ELISA of culture supernatant of 293F cells, control chimeric antibody CA1
T4 construct: pcDNA3.4-IL9 (19-144)-His (P15248); His (C); made in house; host or cells: 293F cells (transient transfection)
Method: ELISA was conducted according to a standard protocol to determine the affinity of a purified antibody for the IL-9-His recombinant protein. In short, the IL-9-His recombinant protein was diluted with sterile PBS and added at 100 μL/well to a 96-well plate. The plate was incubated at 4° C. overnight and then blocked with a blocking buffer. 100 μL of a purified anti-IL-9 antibody serially diluted was added to the plate, and the plate was incubated for 1 h at room temperature. PBS was added to a control well. The plate was washed with PBST 3 times. Then 100 μL of horseradish peroxidase (HRP)-labeled anti-mouse IgG H&L (BIODRAGON, CAT #BF03001) was added, and the plate was incubated for 1 h at room temperature. The plate was washed with PBST 3 times. Then a chromogenic reaction was conducted with a 3,3′,5,5′-tetramethylbenzidine (TMB) chromogenic solution at room temperature. An OD value in each well was read by a microplate reader. Data was processed with PRISM GraphPad, and curves were plotted. The EC50 value for each candidate antibody was calculated.
Humanized antibody expression vectors carrying a designed heavy-chain or light-chain sequence were transiently transfected into 293F cells in pairs, and then a resulting culture supernatant was collected. According to a standard protocol (with reference to part 5.1 in Example 1), with a human-mouse chimeric antibody CA1 constructed with VH and VL of the original murine antibody as a control, the binding of a humanized antibody to a target antigen was detected by ELISA. The method for ELISA was the same as described in 5.1 of Example 1. […] In the follow-up experiments, the four combinations of VH1−VL2, VH1−VL4, VH2−VL4, and VH3−VL4 (hu.CA1 to hu.CA4) were taken as examples for antibody purification and function testing. […]

[11] = test system: bleomycin mouse model of pulmonary fibrosis; test: Bleomycin mouse pulmonary fibrosis model; assay type: in vivo
Method: as §1, §2

T2 sequence (P15248 19-144 limits assumed, form in doubt): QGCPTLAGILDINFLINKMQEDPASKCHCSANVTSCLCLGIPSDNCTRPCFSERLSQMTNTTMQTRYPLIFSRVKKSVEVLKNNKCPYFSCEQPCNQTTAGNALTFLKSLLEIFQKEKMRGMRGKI
T1 sequence (P15248 19-144 limits assumed, form in doubt): as above
T3 sequence (P15248 19-144): as the sequence (P15248 19-144 limits assumed, form in doubt) above
T4 sequence (P15248 19-144): as the sequence (P15248 19-144 limits assumed, form in doubt) above

Molecule | ELISA OD450 [1] | ELISA OD450 [2] | ELISA OD450 [3] | EC50 [4] | ELISA OD450 [5] | EC50 [6] | Kd [7] | koff [7] | kon [7] | EC50 [8] | also measured
B1 | 2.43 OD450 | 2.59 OD450 | 2.63 OD450 | 2.96 µg/mL | 2.45 OD450 | – | – | – | – | – | –
B2 | 2.45 OD450 | 2.62 OD450 | 2.71 OD450 | 8.47 µg/mL | 2.56 OD450 | – | – | – | – | – | –
B3 | 2.46 OD450 | 2.62 OD450 | 2.66 OD450 | 15.8 µg/mL | 2.49 OD450 | – | – | – | – | – | –
B4 | 2.6 OD450 | 2.55 OD450 | 2.43 OD450 | 5.96 µg/mL | 2.48 OD450 | 2.07 µg/mL | 0.44 nM | 0.000934 s⁻¹ | 2.13e+06 M⁻¹ s⁻¹ | 0.022 µg/mL | –
B5 | – | – | – | – | – | – | – | – | – | 0.0459 µg/mL | EC50 [9]: 10.2 µg/mL
B6 | – | – | – | – | – | 5.89 µg/mL | 2.38 nM | 0.00253 s⁻¹ | 1.07e+06 M⁻¹ s⁻¹ | 0.035 µg/mL | Koff (IL-9 antigen protein): 0.002535 s⁻¹; Kon (IL-9 antigen protein): 1.066e+06 M⁻¹ s⁻¹; collagen fibers and fibrosis regions of lung tissues (Masson staining) ([10]; 30 d): significantly reduced; inflammation score ([10]; 30 d, HE staining, FIG. 11B): significantly reduce an inflammation score; fibrosis score ([10]; 30 d, Masson staining, FIG. 12B): reduce a fibrosis score; lung tissue structures (HE staining) ([10]; 30 d, antibody 100 μg i.p. every other day, pirfenidone 300 mg/kg intragastric daily): improved; body weights over time ([10]; compared with negative and positive control groups, FIG. 8B): changed in a same trend; binding to IL-9 (IL-9): bind to IL-9 with high affinity; collagen fibers and fibrosis regions of lung tissues (Masson staining) ([11]; bleomycin model, 21 d): significantly reduced; inflammation score compared with pirfenidone group ([11]; bleomycin model, 21 d, HE staining): slightly lower than the pirfenidone group; inflammation score ([11]; bleomycin model, 21 d, HE staining, FIG. 9B): significantly reduce an inflammation score; fibrosis score ([11]; bleomycin model, 21 d, Masson staining, FIG. 10B): significantly reduce a fibrosis score; lung tissue structures (HE staining) ([11]; bleomycin model, 21 d, antibody 100 μg i.p. every other day, pirfenidone 300 mg/kg intragastric daily): improved; body weights over time ([11]; bleomycin model, compared with negative and positive control groups, FIG. 8A): changed in a same trend; safety ([11]; conclusion from body weights in bleomycin and silica models): excellent safety
